The data set in a line: soluble on expression in E. coli; label from the status in PepcDB or PDB records.
Take “GGSGWNADNVDPSQCIKQSGVQYTYNSGVSVCMQGLNEGKVRGVSVSGVFYYNDGTTSNFKGVVTPSTPVNTNQDINKTNKVGVQKYRALTEWVGSRSHHHHHH”: the “soluble on expression in E. coli” value is reported as “soluble”. For “HQYSDLTINPSLGPASPTSFDDLATYRFEQWVNNLDITRAFDGLFGVPLQVSAGLEHRWERFRTFSGDAQAYQVGGYRFPASLPNGQASPLAGQLASIAAQAAAVISPQDATRLQRNNYAAYVDFGITPIEPLFVDLALRAEHFDDDSGNTVSAKLNSRYEFTDTFAVRGTVGTGFRAPSLTQTGYSISDNRVGAAPDGTIVPAVTRIAPVNSALAQALGATTLDPEKSRNLGVGVTWQPAPRTSLTADAYWIEIADRIARTESLYGPALAPTLTAQGVDTSTWTSYYANAFDTRTRGLDIVLD”, the “soluble on expression in E. coli” value was “not soluble”. The value for “KQPKKSQPDLFYATDGTPILVGKNNLQNDQLTLRTAKKTDYWLHAKDIPGSHVIIRDAHPSEETLTEAALLAAYFSKYRLSSQVPVDYVQVKHVHK” was “not soluble”; that for “MEKNMKIELITIKEFIEQAECYFRNYMDGLRRNAPDDFYYFLNNKYNMNDIMESIIKKTRYHFYDDTEEGKRNRIYGEVNHCKVKQHLRQLWIVYKCVYR” was “soluble”. With “MMHMDESRKEIIREEAKRAKAIAVEKYKAGDFAGAKEFALKAKQINPALGGLRRLNALLDVCMGFQKQVNGEVDWYDVLAVERTADFITIFNRYSTLAIDISLDRDESVGSGVKEALKILTDASKYFLERRELLPSRRVSGPINQLSRISCEGSKQKEPPPTNLLHVSKLTRMSEDAEIRHDISPNRLRSALARKATSVIKLSLETFVCSSPHNNVGAAEETDNKVMEE” the entry was “soluble”; with “HSPKVSSQNRTRSFGHFPGPEFLDVEKTSFSQEQSCDSAGEGSERIHQDSESGDELSSSSTEQIRATTPPNQGRPDSPVYANLQELKISQSALPPLPGSPAIQINGEWETHKDSSGRCYYYNRGTQERTWKPPRWTRDASISKGDFQNPGDQEWLKHVDDQGRQYYYSADGSRSEWELPKYNASSQQQREIIKSRSLDRRLQEPIVLTKWRHSTIVLDTNDKESPTASKPCFPENESSPSSPKHQDTDQEKYGLLNVTKIAENGKKVRKNWLSSWAVLQGSSLLFTKTQGSSTSWFGSNQSKPEFTVDLKGATIEMASKDKSSKKNVFELKTRQGTELLIQSDNDTVINDWFKVLSSTINNQAVETDEGIEEEIPDSPGIEKHDKEKEQKDPKKLRSFKVSSIDSSEQKKTKKNLKKFLTRRPTLQAVREKGYIKDQVFGSNLANLCQRENGTVPKFVKLCIEHVEEHGLDIDGIYRVSGNLAVIQKLRFAVNHDEKLDLNDSKWEDIHVITGALKMFFRELPEPLFTFNHFNDFVNAIKQEPRQRVAAVKDLIRQLPKPNQDTMQILFRHLRRVIENGEKNRMTYQSIAIVFGPTLLKPEKETGNIAVHTVYQNQIVELILLELSSIFGR”, “soluble”; with “MFNFANFYQLIAQDTRLQPWLNVLPQQLTDWQNAEHGDFGRWLKALNKIPEGSPDQVDIKNSVTISNDTPFHEGELKKLENLLRTFHPWRKGPYTVHGIHIDTEWRSDWKWDRVLPHISPLKNRSVLDVGCGNGYHMWRMLGEGARLCVGIDPSHLFLIQFEAIRKLMGGDQRAHLLPLGIEQLPKLEAFDTVFSMGVLYHRRSPLDHLIQLKDQLVSGGELVLETLVIEGDENAVLVPTSRYAQMRNVYFFPSAKALKVWLELVGFEDVHIVDENVTSVDEQRTTDWMTHNSLPDYLDPNDPSKTVEGYPAPRRAVLVARKP”, “not soluble”. The value for “MGSDKIHHHHHHMIPFNKPHLTGKEVHYIYEAVHSGKISGNGIFTKKCHDFFTSTYGFTKTLMTSSCTDALEMSSLLMDIQPGDEIILPTFTFVSTANAFVLRGAKLVFVDSLATEPNMNVELIEGLITSKTKAIVVVHYAGVACDMDVVMNIAKKYQLFVVEDAAQAISSYYKDKPLGGIGDFGAFSFHETKNIISGEGGLLAINNSDYCNRSEIIWEKGTNRSAFFRGETDKYGWVDVGSSFLPSEIISAFLYAQLENVAEIQAKRLEIWNTYYNTLSPLAEHKKLRLPYIPAYATNNAHMFYVICNSLEERTALIDYLKAHNILAVFHYLSLHKSPYFSDKHDGRSMDYADQYAETLVRLPLFYDLSTEDQEFICTKILSFYSEKI” was “not soluble”; that for “MRWKLLFALLAALLLAACSQSSERVVIGSKPFNEQYILANMIAILLEENGYKAEVKEGLGGTLVNYEALKRNDIQLYVEYTGTAYNVILRKQPPELWDQQYIFDEVKKGLLEADGVVVAAKLGFRDDYALAVRADWAEENGVEKISDLAEFADQLVFGSDPEFASRPDGLPQIKKVYGFEFKEVKQMEPTLMYEAIKNKQVDVIPAYTTDSRVDLFNLKILEDDKGALPPYDAIIIVNGNTAKDEKLISVLKLLEDRIDTDTMRALNYQYDVEKKDAREIAMSFLKEQGLVK” was “not soluble”.

Turning to “SMDEVVRIHSSSGTTGKPTVVGYTKHDMEVWGEVMARTFTLAGVTAKDVVHNAYGYGLFTGGLGFHDGAQRVGATIIPASGGFTNRQIMLLRDFKATALTCTPSFAMHLAEVAKSEGFDPRKDFHLKAGIFGAEPSSEGLQRAVADTWGIAYHEIYGLSELIGPGVSCSCEQ”, the “soluble on expression in E. coli” value is recorded as “not soluble”. With “MKKLIVDLDGTLTQANTSDYRNVLPRLDVIEQLREYHQLGFEIVISTARNMRTYEGNVGKINIHTLPIITEWLDKHQVPYDEILVGKPWCGHDGFYIDDRAVRPSEFASMNLEEIHQLFEKEKSCS” the entry was “soluble”. The value for “MRVGIPTETKNNEFRVAITPAGVAELTRRGHEVLIQAGAGEGSAITDADFKAAGAQLVGTADQVWADADLLLKVKEPIAAEYGRLRHGQILFTFLHLAASRACTDALLDSGTTSIAYETVQTADGALPLLAPMSEVAGRLAAQVGAYHLMRTQGGRGVLMGGVPGVEPADVVVIGAGTAGYNAARIANGMGATVTVLDINIDKLRQLDAEFCGRIHTRYSSAYELEGAVKRADLVIGAVLVPGAKAPKLVSNSLVAHMKPGAVLVDIAIDQGGCFEGSRPTTYDHPTFAVHDTLFYCVANMPASVPKTSTYALTNATMPYVLELADHGWRAACRSNPALAKGLSTHEGALLSERVATDLGVPFTEPASVLAHHHHHH” was “soluble”.

On to “MAGVTKEQIAKAKEWDLLSYLQAYEPQELKKSGPREYCTRTHDSLKISNGKWCWNSRGIGGRTALDYLIKVRGMDFVGAVETLCGYCAPPPEKAPPIKEKQPKPFRLPQASRCASAVVGYLQDRGIDPELLGVCMEAGILYESCKYQNCVFVGRDTAGNARAASLRGTRDGFRMDVEGSDKRYSFCLPAGKADCPRLAVAESPIDALSLATLVKLSGGEPRDSHYLSLGGTGPRALIQFLHDHPHVTQVSLCLDNDKAGLEGMERLTQEIQNDAELSRRVKLVYPNPPKQGKDYNEFLCTHVKAVRTAQRQRDAAR”, for which the “soluble on expression in E. coli” value is recorded as “not soluble”. In the case of “MGSDKIHHHHHHAQTDSMLIRPTVDKRVELLSIIFRLTGNPEYNRNDFKLYTDRIESHFSPYKNHELISFARSLVKTDGVSYDAVMSMAINLDNQFNLPADYGSLDSRWNRNQVGPFIKLLKKFVKDSRFDAFYHSNENLYQEAVSRFMPIYKSIDTQWYNDFYGQKSNDRFHIILSMSNGPGNYGPSVTDKENVHNVFSVMGAWVTDSVGMVVYPPELILPILIHEFNHSFINFDPEMFRTSGEQIYAAVGEQMARQAYGQWSIVLTEAMVRAAVIKYMKDHNFPAVEITKETVIQKTRGFVWISKLVDELEKYSSDRTTYPTLNSYMPRLAEAYTGFAQYTANYDSIRPKVVSIDEFTNGDTTVRSDIKTITVHFDRPLVGRGHSFNYGHLGMEAMPKIINVNYANDNRTVIIGVELLPGKEYGITLLGLSFRTPEGDAIKPYEISFKTAE”, the “soluble on expression in E. coli” value was “not soluble”.

In the case of “SNADDMIILKGVNIFPIQIETILLQFKELGSDYLITLETAESNDEMTVEVELSQLFTDDYGRLQALTREITRQLKDEILVTPRVKLVPKGALPKSEGKAVRVKDLRKTF”, the “soluble on expression in E. coli” value was “soluble”.

Regarding “MGSDKIHHHHHHMVRFISNTLSQTLNEPFQQSHKSCKHLYILEILSQVVIVSDQKQVPLQPYDIILAQSFNHLQIDSLDRNPILLRLYSLDFDLPSPLNQYTVGDNPLIHDLMNDHTSEDAYILFTNLSDLICHAYLDALEKLENLRDNNDEQVYIDFQRQKLAGLLFTELLRQHDAKVSKFASRFPSVNVKYASKDSQSGAIMKYVSDNVHHISLKEAAAHFFYQANYFSRLCHELFGISFNQLKTTIRLEIAKEQLRLTTKSVEEISQELGYKAVSNFHRNFKSQTGMTPNDYRQDKQ”, the “soluble on expression in E. coli” value is “not soluble”.

Values taken from the DeepSol protein solubility set.
